Test results: patent publication US12698494

T1: FRETS-VWF73 fluorogenic substrate, P04275
T1 chain: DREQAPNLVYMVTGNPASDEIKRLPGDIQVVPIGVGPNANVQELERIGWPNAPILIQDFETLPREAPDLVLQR


Columns and labels:
[1] = molecular target: Von Willebrand Factor (VWF) multimers, P04275
[2] = molecular target: T1, FRETS-VWF73 fluorogenic substrate, …

Protein	VWF multimer assay (urea-denatured recombinant VWF) [1]	FRETS-VWF73 activity relative to wild-type ADAMTS13 [2]	Ability to process VWF multimers under denaturing conditions [1]	vortex assay: processing of VWF multimers under turbulent flow [1]	Activity level (% relative to wild type ADAMTS13) VWFFRETS73 (% relative to wild type ADAMTS13) [2]	vortex assay: processing of VWF multimers under shear stress [1]
Full-length ADAMTS13 variant NGLY2 (590PLFTH594 to 590PNFTH594) (protein) AAGGILHLELLVAVGPDVFQAHQEDTERYVLTNLNIGAELLRDPSLGAQFRVHLVKMVILTEPEGAPNITANLTSSLLSVCGWSQTINPEDDTDPGHADLVLYITRFDLELPDGNRQVRGVTQLGGACSPTWSCLITEDTGFDLGVTIAHEIGHSFGLEHDGAPGSGCGPSGHVMASDGAAPRAGLAWSPCSRRQLLSLLSAGRARCVWDPPRPQPGSAGHPPDAQPGLYYSANEQCRVAFGPKAVACTFAREHLDMCQALSCHTDPLDQSSCSRLLVPLLDGTECGVEKWCSKGRCRSLVELTPIAAVHGRWSSWGPRSPCSRSCGGGVVTRRRQCNNPRPAFGGRACVGADLQAEMCNTQACEKTQLEFMSQQCARTDGQPLRSSPGGASFYHWGAAVPHSQGDALCRHMCRAIGESFIMKRGDSFLDGTRCMPSGPREDGTLSLCVSGSCRTFGCDGRMDSQQVWDRCQVCGGDNSTCSPRKGSFTAGRAREYVTFLTVTPNLTSVYIANHRPNFTHLAVRIGGRYVVAGKMSISPNTTYPSLLEDGRVEYRVALTEDRLPRLEEIRIWGPLQEDADIQVYRRYGEEYGNLTRPDITFTYFQPKPRQAWVWAAVRGPCSVSCGAGLRWVNYSCLDQARKELVETVQCQGSQQPPAWPEACVLEPCPPYWAVGDFGPCSASCGGGLRERPVRCVEAQGSLLKTLPPARCRAGAQQPAVALETCNPQPCPARWEVSEPSSCTSAGGAGLALENETCVPGADGLEAPVTEGPGSVDEKLPAPEPCVGMSCPPGWGHLDATSAGEKAPSPWGSIRTGAQAAHVWTPAAGSCSVSCGRGLMELRFLCMDSALRVPVQEELCGLASKPGSRREVCQAVPCPARWQYKLAACSVSCGRGVVRRILYCARAHGEDDGEEILLDTQCQGLPRPEPQEACSLEPCPPRWKVMSLGPCSASCGLGTARRSVACVQLDQGQDVEVDEAACAALVRPEASVPCLIADCTYRWHVGTWMECSVSCGDGIQRRRDTCLGPQAQAPVPADFCQHLPKPVTVRGCWAGPCVGQGTPSLVPHEEAAAPGRTTATPAGASLEWSQARGLLFSPAPQPRRLLPGPQENSVQSSACGRQHLEPTGTIDMRGPGQADCAVAIGRPLGEVVTLRVLESSLNCSAGDMLLLWGRLTWRKMCRKLLDMTFSSKTNTLVVRQRCGRPGGGVLLRYGSQLAPETFYRECDMQLFGPWGEIVSPSLSPATSNAGGCRLFINVAPHARIAIHALATNMGAGTEGANASYILIRDTHSLRTTAFHGQQVLYWESESSQAEMEFSEGFLKAQASLRGQYWTLQSWVPEMQDPQSWKGKEGTHHHHHH	a reduced VWF processing activity was observed for NGLY2 and NGLY5	The ability of NGLY1, 2, 3 and 4 was similar or higher when compared to wild-type ADAMTS13	–	–	–	–
Full-length wild-type ADAMTS13 (1427 amino acids) (protein) AAGGILHLELLVAVGPDVFQAHQEDTERYVLTNLNIGAELLRDPSLGAQFRVHLVKMVILTEPEGAPNITANLTSSLLSVCGWSQTINPEDDTDPGHADLVLYITRFDLELPDGNRQVRGVTQLGGACSPTWSCLITEDTGFDLGVTIAHEIGHSFGLEHDGAPGSGCGPSGHVMASDGAAPRAGLAWSPCSRRQLLSLLSAGRARCVWDPPRPQPGSAGHPPDAQPGLYYSANEQCRVAFGPKAVACTFAREHLDMCQALSCHTDPLDQSSCSRLLVPLLDGTECGVEKWCSKGRCRSLVELTPIAAVHGRWSSWGPRSPCSRSCGGGVVTRRRQCNNPRPAFGGRACVGADLQAEMCNTQACEKTQLEFMSQQCARTDGQPLRSSPGGASFYHWGAAVPHSQGDALCRHMCRAIGESFIMKRGDSFLDGTRCMPSGPREDGTLSLCVSGSCRTFGCDGRMDSQQVWDRCQVCGGDNSTCSPRKGSFTAGRAREYVTFLTVTPNLTSVYIANHRPLFTHLAVRIGGRYVVAGKMSISPNTTYPSLLEDGRVEYRVALTEDRLPRLEEIRIWGPLQEDADIQVYRRYGEEYGNLTRPDITFTYFQPKPRQAWVWAAVRGPCSVSCGAGLRWVNYSCLDQARKELVETVQCQGSQQPPAWPEACVLEPCPPYWAVGDFGPCSASCGGGLRERPVRCVEAQGSLLKTLPPARCRAGAQQPAVALETCNPQPCPARWEVSEPSSCTSAGGAGLALENETCVPGADGLEAPVTEGPGSVDEKLPAPEPCVGMSCPPGWGHLDATSAGEKAPSPWGSIRTGAQAAHVWTPAAGSCSVSCGRGLMELRFLCMDSALRVPVQEELCGLASKPGSRREVCQAVPCPARWQYKLAACSVSCGRGVVRRILYCARAHGEDDGEEILLDTQCQGLPRPEPQEACSLEPCPPRWKVMSLGPCSASCGLGTARRSVACVQLDQGQDVEVDEAACAALVRPEASVPCLIADCTYRWHVGTWMECSVSCGDGIQRRRDTCLGPQAQAPVPADFCQHLPKPVTVRGCWAGPCVGQGTPSLVPHEEAAAPGRTTATPAGASLEWSQARGLLFSPAPQPRRLLPGPQENSVQSSACGRQHLEPTGTIDMRGPGQADCAVAIGRPLGEVVTLRVLESSLNCSAGDMLLLWGRLTWRKMCRKLLDMTFSSKTNTLVVRQRCGRPGGGVLLRYGSQLAPETFYRECDMQLFGPWGEIVSPSLSPATSNAGGCRLFINVAPHARIAIHALATNMGAGTEGANASYILIRDTHSLRTTAFHGQQVLYWESESSQAEMEFSEGFLKAQASLRGQYWTLQSWVPEMQDPQSWKGKEGTHHHHHH	–	–	++++++	resulted in loss of the high molecular weight multimers from the sample	100	–
Full-length ADAMTS13 variant NGLY3 (607GKMSI611 to 607GNMSI611; K608N) (protein) AAGGILHLELLVAVGPDVFQAHQEDTERYVLTNLNIGAELLRDPSLGAQFRVHLVKMVILTEPEGAPNITANLTSSLLSVCGWSQTINPEDDTDPGHADLVLYITRFDLELPDGNRQVRGVTQLGGACSPTWSCLITEDTGFDLGVTIAHEIGHSFGLEHDGAPGSGCGPSGHVMASDGAAPRAGLAWSPCSRRQLLSLLSAGRARCVWDPPRPQPGSAGHPPDAQPGLYYSANEQCRVAFGPKAVACTFAREHLDMCQALSCHTDPLDQSSCSRLLVPLLDGTECGVEKWCSKGRCRSLVELTPIAAVHGRWSSWGPRSPCSRSCGGGVVTRRRQCNNPRPAFGGRACVGADLQAEMCNTQACEKTQLEFMSQQCARTDGQPLRSSPGGASFYHWGAAVPHSQGDALCRHMCRAIGESFIMKRGDSFLDGTRCMPSGPREDGTLSLCVSGSCRTFGCDGRMDSQQVWDRCQVCGGDNSTCSPRKGSFTAGRAREYVTFLTVTPNLTSVYIANHRPLFTHLAVRIGGRYVVAGNMSISPNTTYPSLLEDGRVEYRVALTEDRLPRLEEIRIWGPLQEDADIQVYRRYGEEYGNLTRPDITFTYFQPKPRQAWVWAAVRGPCSVSCGAGLRWVNYSCLDQARKELVETVQCQGSQQPPAWPEACVLEPCPPYWAVGDFGPCSASCGGGLRERPVRCVEAQGSLLKTLPPARCRAGAQQPAVALETCNPQPCPARWEVSEPSSCTSAGGAGLALENETCVPGADGLEAPVTEGPGSVDEKLPAPEPCVGMSCPPGWGHLDATSAGEKAPSPWGSIRTGAQAAHVWTPAAGSCSVSCGRGLMELRFLCMDSALRVPVQEELCGLASKPGSRREVCQAVPCPARWQYKLAACSVSCGRGVVRRILYCARAHGEDDGEEILLDTQCQGLPRPEPQEACSLEPCPPRWKVMSLGPCSASCGLGTARRSVACVQLDQGQDVEVDEAACAALVRPEASVPCLIADCTYRWHVGTWMECSVSCGDGIQRRRDTCLGPQAQAPVPADFCQHLPKPVTVRGCWAGPCVGQGTPSLVPHEEAAAPGRTTATPAGASLEWSQARGLLFSPAPQPRRLLPGPQENSVQSSACGRQHLEPTGTIDMRGPGQADCAVAIGRPLGEVVTLRVLESSLNCSAGDMLLLWGRLTWRKMCRKLLDMTFSSKTNTLVVRQRCGRPGGGVLLRYGSQLAPETFYRECDMQLFGPWGEIVSPSLSPATSNAGGCRLFINVAPHARIAIHALATNMGAGTEGANASYILIRDTHSLRTTAFHGQQVLYWESESSQAEMEFSEGFLKAQASLRGQYWTLQSWVPEMQDPQSWKGKEGTHHHHHH	The VWF processing activity of NGLY3 and NGLY4 was similar to that of the wild-type ADAMTS13	The ability of NGLY1, 2, 3 and 4 was similar or higher when compared to wild-type ADAMTS13	++++++	–	125	Under these conditions NGLY3 was fully active
Full-length ADAMTS13 variant NGLY4 (608KMSIS612 to 608KNSTS612) (protein) AAGGILHLELLVAVGPDVFQAHQEDTERYVLTNLNIGAELLRDPSLGAQFRVHLVKMVILTEPEGAPNITANLTSSLLSVCGWSQTINPEDDTDPGHADLVLYITRFDLELPDGNRQVRGVTQLGGACSPTWSCLITEDTGFDLGVTIAHEIGHSFGLEHDGAPGSGCGPSGHVMASDGAAPRAGLAWSPCSRRQLLSLLSAGRARCVWDPPRPQPGSAGHPPDAQPGLYYSANEQCRVAFGPKAVACTFAREHLDMCQALSCHTDPLDQSSCSRLLVPLLDGTECGVEKWCSKGRCRSLVELTPIAAVHGRWSSWGPRSPCSRSCGGGVVTRRRQCNNPRPAFGGRACVGADLQAEMCNTQACEKTQLEFMSQQCARTDGQPLRSSPGGASFYHWGAAVPHSQGDALCRHMCRAIGESFIMKRGDSFLDGTRCMPSGPREDGTLSLCVSGSCRTFGCDGRMDSQQVWDRCQVCGGDNSTCSPRKGSFTAGRAREYVTFLTVTPNLTSVYIANHRPLFTHLAVRIGGRYVVAGKNSTSPNTTYPSLLEDGRVEYRVALTEDRLPRLEEIRIWGPLQEDADIQVYRRYGEEYGNLTRPDITFTYFQPKPRQAWVWAAVRGPCSVSCGAGLRWVNYSCLDQARKELVETVQCQGSQQPPAWPEACVLEPCPPYWAVGDFGPCSASCGGGLRERPVRCVEAQGSLLKTLPPARCRAGAQQPAVALETCNPQPCPARWEVSEPSSCTSAGGAGLALENETCVPGADGLEAPVTEGPGSVDEKLPAPEPCVGMSCPPGWGHLDATSAGEKAPSPWGSIRTGAQAAHVWTPAAGSCSVSCGRGLMELRFLCMDSALRVPVQEELCGLASKPGSRREVCQAVPCPARWQYKLAACSVSCGRGVVRRILYCARAHGEDDGEEILLDTQCQGLPRPEPQEACSLEPCPPRWKVMSLGPCSASCGLGTARRSVACVQLDQGQDVEVDEAACAALVRPEASVPCLIADCTYRWHVGTWMECSVSCGDGIQRRRDTCLGPQAQAPVPADFCQHLPKPVTVRGCWAGPCVGQGTPSLVPHEEAAAPGRTTATPAGASLEWSQARGLLFSPAPQPRRLLPGPQENSVQSSACGRQHLEPTGTIDMRGPGQADCAVAIGRPLGEVVTLRVLESSLNCSAGDMLLLWGRLTWRKMCRKLLDMTFSSKTNTLVVRQRCGRPGGGVLLRYGSQLAPETFYRECDMQLFGPWGEIVSPSLSPATSNAGGCRLFINVAPHARIAIHALATNMGAGTEGANASYILIRDTHSLRTTAFHGQQVLYWESESSQAEMEFSEGFLKAQASLRGQYWTLQSWVPEMQDPQSWKGKEGTHHHHHH	The VWF processing activity of NGLY3 and NGLY4 was similar to that of the wild-type ADAMTS13	The ability of NGLY1, 2, 3 and 4 was similar or higher when compared to wild-type ADAMTS13	–	–	–	–
